For orientation: Kd means the constant that tells how readily two partners part at equilibrium. Lower therefore signals higher affinity. One may read the Km as the substrate concentration at which the rate is half of its maximum.

One data set has as its target T1, TaVTC2 (Triticum aestivum, UniProt A0A650C200).
T1 construct: gene GGP2-D; full-length CDS; recombinant GST fusion (TaVTC2-GST) from E. coli BL21
T1 sequence (A0A650C200 1-431): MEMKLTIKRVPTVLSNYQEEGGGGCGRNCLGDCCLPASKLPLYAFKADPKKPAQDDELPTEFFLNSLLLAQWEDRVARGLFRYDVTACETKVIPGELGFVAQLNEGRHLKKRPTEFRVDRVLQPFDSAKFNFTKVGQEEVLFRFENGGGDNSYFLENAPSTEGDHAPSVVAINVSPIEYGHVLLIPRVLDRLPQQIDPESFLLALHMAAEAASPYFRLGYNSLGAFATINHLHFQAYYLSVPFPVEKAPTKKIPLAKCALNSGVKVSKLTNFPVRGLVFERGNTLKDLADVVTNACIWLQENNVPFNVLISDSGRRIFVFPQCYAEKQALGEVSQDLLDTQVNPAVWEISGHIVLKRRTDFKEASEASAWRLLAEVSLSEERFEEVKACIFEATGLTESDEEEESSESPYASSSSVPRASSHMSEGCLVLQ
As to the kind of experiment: microscale thermophoresis. The class given is binding. (In MST a laser heats a spot of the sample, and binding alters the fluorescence response.)

The target in data set [1] is TaVTC2-GST (wheat (Triticum aestivum)). As to the kind of experiment: ITC; ITC 200 Micro Calorimeter, 20 °C; 10 mM Tris-HCl, 150 mM sodium chloride, pH 7.5; one-set-of-sites model; which protein was in the syringe is not given. Background: Isothermal titration calorimetry measures the heat released or taken up as one component is titrated into another.
Substrate in the data set “purified protein”: Nc1nc2c(ncn2[C@@H]2O[C@H](COP(=O)(O)OP(=O)(O)O[C@H]3O[C@@H](CO)[C@@H](O)[C@@H](O)[C@@H]3O)[C@@H](O)[C@H]2O)c(=O)[nH]1
Briefly: purified protein. It counts as biochemical, Triticum aestivum. To be noted: 5 mM K2HPO4, 2.5 mM MgCl2, 50 mM KCl, 50 mM HEPES pH 6.9, 20 °C.

For another data set, the target named is T2, NIb-His (wheat yellow mosaic virus (WYMV)).
T2 chain: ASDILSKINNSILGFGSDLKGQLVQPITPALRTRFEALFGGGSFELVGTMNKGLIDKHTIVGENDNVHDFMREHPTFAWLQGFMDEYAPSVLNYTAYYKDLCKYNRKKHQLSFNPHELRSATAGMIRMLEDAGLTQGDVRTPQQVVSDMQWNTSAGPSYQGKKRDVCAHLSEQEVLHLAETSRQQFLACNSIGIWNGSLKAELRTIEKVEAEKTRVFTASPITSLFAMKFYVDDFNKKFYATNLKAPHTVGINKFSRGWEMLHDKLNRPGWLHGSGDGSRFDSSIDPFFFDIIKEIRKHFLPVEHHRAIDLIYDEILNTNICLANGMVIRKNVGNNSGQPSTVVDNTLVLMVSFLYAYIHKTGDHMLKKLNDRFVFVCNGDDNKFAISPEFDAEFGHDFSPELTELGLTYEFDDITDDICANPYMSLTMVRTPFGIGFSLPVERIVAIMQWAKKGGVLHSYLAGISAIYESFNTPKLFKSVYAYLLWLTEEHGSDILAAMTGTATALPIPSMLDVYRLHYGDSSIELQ
As to the kind of experiment: ITC.

Take `Nc1nc2c(ncn2[C@@H]2O[C@H](COP(=O)(O)OP(=O)(O)O[C@H]3O[C@@H](CO)[C@@H](O)[C@@H](O)[C@@H]3O)[C@@H](O)[C@H]2O)c(=O)[nH]1` [GDP-L-galactose]: at TaVTC2, the Kd came out at 2.7 µM. That is a single-digit micromolar value.

In data set [1], NIb-His (natural protein) yielded a Ka of 167000 M⁻¹.

B1: TaVTC2-GST (enzyme)
chain: T1 sequence (A0A650C200 1-431)
With B1, the Km in “purified protein” is 78 ± 22.9 µM. Also, the affinity with NIb-His, expressed as Kd, was 5.98 µM.

The record behind these values is publication PMC10106851, “Wheat yellow mosaic virus NIb targets TaVTC2 to elicit broad‐spectrum pathogen resistance in wheat” (Plant Biotechnology Journal, 2023).
